Drawing on PMC8420772, this text covers stoichiometry N for one substance.

Assay [1] has as its target MtMce4A_(39–140) (Mycobacterium tuberculosis H37Rv). The experiment in a line: SEC-MALS; in crystallization buffer (0.1 M MES, 0.7 M ammonium sulfate pH 6.0) after slow heating from 20 to 50°C (0.8°C per minute); supernatant on Superdex 200 10/300.
The target is the same in assay [2]. The experiment in a line: crystal structure; native protein, 7.5 mg ml^−1; 100 mM sodium HEPES, 100 mM LiCl2, 20% PEG 400 pH 7.5, 22°C; space group P6_(5), 2.9 Å.

As for MtMce4A_(39–140) (domain or fragment), the stoichiometry N in assay [1] and in assay [2] was 2 in each case.
